Holding throughout (test): cell-based or functional assay
Assay [1] addresses HIV-1 Env of pseudovirus C2101.c01 (HIV-1).
Assay [2] addresses HIV-1 Env of pseudovirus 3415.v1.c1 (HIV-1).
Assay [3] has as its target HIV-1 Env of pseudovirus CNE5 (HIV-1).
In assay [4] the target is HIV-1 Env of pseudovirus 1054_07_TC4_1499 (HIV-1).
Assay [5] has as its target HIV-1 Env of pseudovirus Ce1172_H1 (HIV-1).
In assay [6] the target is HIV-1 Env of pseudovirus 6244_13_B5_4576 (HIV-1).
Assay [7] deals with HIV-1 Env of pseudovirus 1056_10_TA11_1826 (HIV-1).
For assay [8], the target named is HIV-1 Env of pseudovirus ZM249M.PL1 (HIV-1).
Assay [9] concerns the target HIV-1 Env of pseudovirus Du422.1 (HIV-1).
The target in assay [10] is HIV-1 Env of pseudovirus TRJO4551.58 (HIV-1).
Assay [11] concerns the target HIV-1 Env of pseudovirus Ce0393_C3 (HIV-1).
Assay [12] addresses HIV-1 Env of pseudovirus Ce0682_E4 (HIV-1).
The target in assay [13] is HIV-1 Env of pseudovirus 246F C1G (HIV-1).
Assay [14] addresses HIV-1 Env of pseudovirus BF1266.431a (HIV-1).
Assay [15] deals with HIV-1 Env of pseudovirus Q842.d12 (HIV-1).
The target of assay [16] is HIV-1 Env of pseudovirus CNE21 (HIV-1).
Assay [17] addresses HIV-1 Env of pseudovirus Ce703010054_2A2 (HIV-1).
In assay [18] the target is HIV-1 Env of pseudovirus CAAN5342.A2 (HIV-1).
Assay [19] has as its target HIV-1 Env of pseudovirus 6240_08_TA5_4622 (HIV-1).
For assay [20], the target named is HIV-1 Env of pseudovirus HIV-001428-2.42 (HIV-1).
The target of assay [21] is HIV-1 Env of pseudovirus CNE20 (HIV-1).
Assay [22] addresses HIV-1 Env of pseudovirus 7030102001E5(Rev-) (HIV-1).
Assay [23] addresses HIV-1 Env of pseudovirus 1006_11_C3_1601 (HIV-1).
Assay [24] concerns the target HIV-1 Env of pseudovirus SC422661.8 (HIV-1).
Assay [25] addresses HIV-1 Env of pseudovirus HIV-16055-2.3 (HIV-1).
The target of assay [26] is HIV-1 Env of pseudovirus 1394C9G1(Rev-) (HIV-1).
The target in assay [27] is HIV-1 Env of pseudovirus CNE58 (HIV-1).
Assay [28] deals with HIV-1 Env of pseudovirus 62357_14_D3_4589 (HIV-1).
For assay [29], the target named is HIV-1 Env of pseudovirus HIV-16845-2.22 (HIV-1).
The target in assay [30] is HIV-1 Env of pseudovirus CAP45.2.00.G3 (HIV-1).
In assay [31] the target is HIV-1 Env of pseudovirus CNE19 (HIV-1).
Assay [32] addresses HIV-1 Env of pseudovirus Q461.e2 (HIV-1).
Assay [33] addresses HIV-1 Env of pseudovirus ZM197M.PB7 (HIV-1).
For assay [34], the target named is HIV-1 Env of pseudovirus SC05_8C11_2344 (HIV-1).
The target of assay [35] is HIV-1 Env of pseudovirus 6535.3 (HIV-1).
Assay [36] concerns the target HIV-1 Env of pseudovirus Q23.17 (HIV-1).
Assay [37] concerns the target HIV-1 Env of pseudovirus RHPA4259.7 (HIV-1).

In [1], N49P9 (antibody) returned a neutralization IC50 of 0.051 µg/mL, a neutralization IC80 of 0.209 µg/mL and a neutralization MPI of 100. Besides, in [2], the neutralization IC50 is 0.137 µg/mL, the neutralization IC80 came out at 0.502 µg/mL and the neutralization MPI was determined as 100.

As to N49P9.1 (antibody), the neutralization IC50 stood at 0.183 µg/mL in [3], 0.085 µg/mL in assay [1] and 0.21 µg/mL in assay [2]. The neutralization IC80 in assay [3] was 0.641 µg/mL; in [1], 0.227 µg/mL; in assay [2] it was 1.37 µg/mL. Also, the neutralization MPI in assay [3], in assay [1] and in assay [2] was 100 throughout.

In assay [3], N49P19 (antibody) gave a neutralization IC50 of 0.748 µg/mL, a neutralization IC80 of 3.29 µg/mL and a neutralization MPI of 100. In assay [1], this substance gave a neutralization IC50 of 0.978 µg/mL, a neutralization IC80 of 4.19 µg/mL and a neutralization MPI of 100. Also, in assay [2], the neutralization IC50 came out at 0.462 µg/mL, the neutralization IC80 is 2.04 µg/mL and the neutralization MPI is 100.

In [3], 10E8 (antibody) came in with an IC50 neutralization (TZM.bl) of 1.41 µg/mL and an IC80 neutralization (TZM.bl) of 9.64 µg/mL. For the same substance, in assay [1], the IC50 neutralization (TZM.bl) is 1.92 µg/mL and the IC80 neutralization (TZM.bl) came to 8.26 µg/mL.

On to PG16 (antibody), for which, in [3], the IC50 neutralization (TZM.bl) was found to be 0.008 µg/mL and the IC80 neutralization (TZM.bl) is 0.033 µg/mL. Further, in assay [1], the IC50 neutralization (TZM.bl) is 0.012 µg/mL and the IC80 neutralization (TZM.bl) stood at 0.238 µg/mL.

In assay [3], PG9 (antibody) returned an IC50 neutralization (TZM.bl) of 0.018 µg/mL and an IC80 neutralization (TZM.bl) of 0.051 µg/mL. Also, in [1], the IC50 neutralization (TZM.bl) amounted to 0.034 µg/mL and the IC80 neutralization (TZM.bl) is 0.099 µg/mL.

In [3], 10-1074 (antibody) displayed an IC50 neutralization (TZM.bl) of over 50 µg/mL and an IC80 neutralization (TZM.bl) of over 50 µg/mL. In assay [1], this substance returned an IC50 neutralization (TZM.bl) of over 50 µg/mL and an IC80 neutralization (TZM.bl) of over 50 µg/mL.

For orientation: IC50 means the point on the concentration scale where inhibition reaches its midpoint. Read a high IC50 as lower potency. As a reminder, the IC80 is the concentration at which the effect reaches the 80% level. Read a high IC80 as a need for much substance. As for 8ANC195 (antibody), the IC50 in [4] was 1.02 µg/mL; in [5] it was 42.3 µg/mL; in [6] it was over 50 µg/mL; in [7] it was over 50 µg/mL; in [8], over 50 µg/mL; in [9], over 50 µg/mL. Further, the IC50 in assay [10] is 0.19 µg/mL; in assay [11] it was 6.77 µg/mL; in assay [12] it was 0.2 µg/mL; in assay [13], 12.8 µg/mL; in [2] it was 17.7 µg/mL; in assay [14], over 50 µg/mL. For the same substance, the IC50 in assay [15] is over 30 µg/mL; in assay [16], 0.27 µg/mL; in assay [17], 13.6 µg/mL; in [18], over 50 µg/mL; in assay [19] it was over 50 µg/mL; in [20], over 50 µg/mL. Further, the concentration for half-maximal inhibition (IC50) in assay [21] is 0.5 µg/mL; in [22] it was 0.86 µg/mL; in [23] it was 0.43 µg/mL; in assay [24], 0.29 µg/mL; in assay [25] it was 15.3 µg/mL; in assay [26], over 50 µg/mL. Besides, the half-maximal inhibitory concentration (IC50) in assay [27] is over 50 µg/mL; in [28], over 50 µg/mL; in assay [29], 3.3 µg/mL; in [30], 28.3 µg/mL; in assay [31], 0.29 µg/mL; in [32] it was 0.63 µg/mL. For the same substance, the IC50 is 23.4 µg/mL in [33]; 0.47 µg/mL in [34]; 0.2 µg/mL in assay [35]; 2.55 µg/mL in assay [36]; 0.34 µg/mL in assay [37]. Moreover, the IC80 in assay [4] was 6.75 µg/mL; in assay [5], over 50 µg/mL; in assay [6], over 50 µg/mL; in [7] it was over 50 µg/mL; in [8], over 50 µg/mL; in [9] it was over 50 µg/mL. Also, the IC80 in [10] was 1.17 µg/mL; in assay [11], over 50 µg/mL; in assay [12], 1.29 µg/mL; in assay [13] it was over 50 µg/mL; in assay [2], 17.7 µg/mL; in [14], over 50 µg/mL. For the same substance, the IC80 is over 30 µg/mL in assay [15]; 1.52 µg/mL in assay [16]; over 50 µg/mL in assay [17]; over 50 µg/mL in assay [18]; over 50 µg/mL in assay [19]; over 50 µg/mL in assay [20]. Further, the IC80 in assay [21] is 3.19 µg/mL; in assay [22], 8.32 µg/mL; in assay [23], 1.98 µg/mL; in assay [24] it was 4.67 µg/mL; in [25] it was over 50 µg/mL; in assay [26], over 50 µg/mL. Moreover, the IC80 was over 50 µg/mL in assay [27]; over 50 µg/mL in assay [28]; 20.1 µg/mL in assay [29]; over 50 µg/mL in assay [30]; 1.73 µg/mL in assay [31]; 2.51 µg/mL in [32]. The IC80 was over 50 µg/mL in assay [33]; 3.06 µg/mL in assay [34]; 0.91 µg/mL in assay [35]; 2.55 µg/mL in assay [36]; 1.56 µg/mL in assay [37].

As to VRC07 (antibody), the IC50 in assay [4] was 0.239 µg/mL; in assay [5] it was over 50 µg/mL; in assay [6] it was 0.065 µg/mL; in [7], 0.239 µg/mL; in assay [8], 0.041 µg/mL; in assay [9], over 50 µg/mL. Also, the IC50 turned out to be 0.032 µg/mL in assay [10]; 0.182 µg/mL in assay [11]; 0.039 µg/mL in assay [12]; 0.286 µg/mL in assay [13]; 0.036 µg/mL in assay [2]; 0.032 µg/mL in assay [14]. For the same substance, the IC50 was found to be 0.015 µg/mL in assay [15]; 0.05 µg/mL in assay [16]; 0.19 µg/mL in [17]; 0.307 µg/mL in assay [18]; 0.448 µg/mL in assay [19]; 0.004 µg/mL in [20]. The IC50 in assay [21] was determined as 0.06 µg/mL; in [22], 0.205 µg/mL; in assay [23], 0.015 µg/mL; in assay [24] it was 0.054 µg/mL; in [25], 0.025 µg/mL; in assay [26], 0.112 µg/mL. Also, the IC50 in assay [27] is 0.11 µg/mL; in [28] it was 0.075 µg/mL; in assay [29], 1.21 µg/mL; in assay [30], 0.355 µg/mL; in assay [31], 0.092 µg/mL; in [32], 0.282 µg/mL. In addition, the IC50 in assay [33] was found to be 0.307 µg/mL; in assay [34], 0.133 µg/mL; in assay [35] it was 0.169 µg/mL; in [36] it was 0.081 µg/mL; in [37], 0.017 µg/mL. Besides, the IC80 in assay [4] was 1.46 µg/mL; in assay [5], over 50 µg/mL; in [6], 0.23 µg/mL; in [7] it was 1.11 µg/mL; in assay [8], 0.145 µg/mL; in [9], over 50 µg/mL. Further, the IC80 was 0.125 µg/mL in assay [10]; 0.634 µg/mL in [11]; 0.239 µg/mL in assay [12]; 1.04 µg/mL in assay [13]; 0.152 µg/mL in assay [2]; 0.117 µg/mL in assay [14]. The IC80 was 0.051 µg/mL in assay [15]; 0.222 µg/mL in [16]; 0.912 µg/mL in [17]; 1.05 µg/mL in assay [18]; 1.54 µg/mL in assay [19]; 0.016 µg/mL in assay [20]. The IC80 in [21] turned out to be 0.129 µg/mL; in [22] it was 0.911 µg/mL; in assay [23] it was 0.046 µg/mL; in [24], 0.175 µg/mL; in [25] it was 0.135 µg/mL; in assay [26], 0.368 µg/mL. In addition, the IC80 turned out to be 0.298 µg/mL in assay [27]; 0.256 µg/mL in assay [28]; 6.15 µg/mL in assay [29]; 3.09 µg/mL in [30]; 0.232 µg/mL in [31]; 1.02 µg/mL in [32]. For the same substance, the concentration for an effect of 80% (IC80) was 1.27 µg/mL in assay [33]; 0.401 µg/mL in [34]; 0.517 µg/mL in assay [35]; 0.236 µg/mL in [36]; 0.048 µg/mL in assay [37].

Source of the values: patent US20240117018A1.
